Laboratory results published in PMC10816986, “The Role of Key Amino Acids of the Human Fe(II)/2OG-Dependent Dioxygenase ALKBH3 in Structural Dynamics and Repair Activity toward Methylated DNA” (International Journal of Molecular Sciences, 2024).
Positions count from the first letter of the chain named. Names and notes keep the numbering of the source.

B1: wt ALKBH3: wild-type human Fe(II)/2OG-dependent dioxygenase ALKBH3 with N-terminal His-tag, expressed in E. coli (protein, UniProt Q96Q83 1-286, looked up)
Alpha-ketoglutarate-dependent …: MEEKRRRARVQGAWAAPVKSQAIAQPATTAKSHLHQKPGQTWKNKEHHLSDREFVFKEPQQVVRRAPEPRVIDREGVYEISLSPTGVSRVCLYPGFVDVKEADWILEQLCQDVPWKQRTGIREDITYQQPRLTAWYGELPYTYSRITMEPNPHWHPVLRTLKNRIEENTGHTFNSLLCNLYRNEKDSVDWHSDDEPSLGRCPIIASLSFGATRTFEMRKKPPPEENGDYTYVERVKIPLDHGTLLIMEGATQADWQHRVPKEYHSREPRVNLTFRTVYPDPRGAPW
modifications: N-terminal His-tag
notes: wild-type human Fe(II)/2OG-dependent dioxygenase ALKBH3 with N-terminal His-tag, expressed in E. coli
B2: L177A ALKBH3: ALKBH3 mutant, Leu177 replaced with Ala (protein, UniProt Q96Q83 1-286, looked up, variant L177A)
Alpha-ketoglutarate-dependent …: B1 Alpha-ketoglutarate-dependent … with L177A
B3: H191A ALKBH3: ALKBH3 mutant, His191 replaced with Ala (protein, UniProt Q96Q83 1-286, looked up, variant H191A)
Alpha-ketoglutarate-dependent …: B1 Alpha-ketoglutarate-dependent … with H191A
B4: Y143A ALKBH3: ALKBH3 mutant, Tyr143 replaced with Ala (protein, UniProt Q96Q83 1-286, looked up, variant Y143A)
Alpha-ketoglutarate-dependent …: B1 Alpha-ketoglutarate-dependent … with Y143A
B5: Y143F ALKBH3: ALKBH3 mutant, Tyr143 replaced with Phe (protein, UniProt Q96Q83 1-286, looked up, variant Y143F)
Alpha-ketoglutarate-dependent …: B1 Alpha-ketoglutarate-dependent … with Y143F

Molecular target: not listed separately
Assay: Equilibrium fluorescence titration with Ni(II)
Assay type: binding
Conditions: 1 µM apoprotein, 25 °C; read-out: Dissociation constant Kd, Ni(II)
From the text: (§1) To investigate the impact of selected mutations on ALKBH3’s ability to bind its cofactor, co-substrate, and methylated DNA, the fluorescent titration method was employed. It is well-established that enzyme–ligand binding typically leads to a protein conformational change, which in turn can alter the fluorescence intensity of tryptophan and tyrosine residues within the protein sequence. […] In this study, transitional metals (Fe(II), Ni(II), and Co(II)), 2OG, and the m3C substrate served as titrants. Protein fluorescence quenching was measured after the addition of an excess of the ligand to 1 µM of enzyme (Supplementary Figure S2). To determine the equilibrium dissociation constant’s Kd values, the resulting titration curves were analyzed using a non-linear regression algorithm (see Section 4.3 of “Materials and Methods” for details). […] As indicated by the data presented in Table 2, the stability of the wt ALKBH3 apoenzyme’s affinity to various ligands and damaged DNA generally corresponds to the stability of such complexes for AlkB and ALKBH2 enzymes. […] The binding of Ni(II) and Co(II) ions of similar radii was weakened by approximately two-fold. […] This behavior is more characteristic of the bacterial homolog AlkB rather than human ALKBH2 [7].
(§2) The intrinsic tryptophan fluorescence quenching was monitored at the maximum of emission (345 nm, in most cases) using an excitation wavelength of 280 nm, and 5 nm slits. An amount of 2 mM of (NH4)2Fe(SO4)2·6H2O, 2 mM of NiSO4×7H2O, 2 mM of CoSO4·7H2O, 2 mM of 2OG, or 100 µM of m3C substrate was titrated into 1 µM of apoprotein (a free enzyme with no metal or 2OG added) in the presence of 50 mM of HEPES-KOH (pH 7.8), 50 mM of KCl, and 10 mM of MgCl2. When titrating with DNA, the buffer was supplemented with 2 mM of EDTA. The dissociation constant Kd for a model of one-step binding (E + L ↔ EL) was determined using Equations (2)–(5) and a non-linear regression algorithm in the OriginPro 8.1 software (OriginLab Corp., Northampton, MA, USA):(2) Kd=E[L]/[EL] (3) F=f0+f1E+f2[EL] (4) e0=E+[EL] (5) l0=L+[EL] where F is the observed fluorescence intensity at any given ligand (L) concentration; f0 is the background fluorescence; f1 and f2 are partial fluorescence intensities of the free enzyme (E) and enzyme–ligand complex (EL), respectively; e0 and l0 are total concentrations of the enzyme and ligand.
(§3) Figure S2. Equilibrium binding of the wild-type and mutant ALKBH3 proteins to transition metals, 2OG, or m3C-containing DNA. The quenching of the enzyme ﬂuorescence is shown as a function of Fe(II) (A), Ni(II) (B), Co(II) (C), 2OG ( D), and single-stranded m3C substrate (E). The protein concentration was 1 µM. In the course of titration by Fe(II), a sodium ascorbate (1mM) was added to keep the metal in a reduced state. Experimental data points were ﬁtted to a single-site binding mode l (see “Materials and Methods”). Each trace represents the average of three technical […]
(§4) (1 picture or pasted object on this page, not shown here)
Molecule B1 has a Kd of 42 ± 4 µM. For B2, the Kd was 90 ± 10 µM. Work on B3 yielded a Kd of 50 ± 4 µM. B4 showed a Kd of 60 ± 7 µM. With B5 the Kd was 42 ± 3 µM.

Molecular target: not listed separately
Assay: Equilibrium fluorescence titration with Fe(II)
Assay type: binding
Conditions: 1 µM apoprotein, 25 °C; read-out: Dissociation constant Kd, Fe(II)
From the text: as §1, §2, §3, §4
In the case of B1, the Kd is reported as 25 ± 2 µM. B2 gave a Kd of 24 ± 2 µM. Molecule B3 has a Kd of 20 ± 2 µM. For B4, the Kd was 25 ± 3 µM. Work on B5 yielded a Kd of 23 ± 2 µM.

Tested on: single-stranded DNA substrate m3C_FAM
Assay: Enzymatic demethylation of single-stranded m3C DNA (chemical quenching, HpaII cleavage, PAGE)
Assay type: biochemical
Conditions: 90 min reaction, 2 µM enzyme and m3C_FAM, 40 µM Fe(II), 1 mM 2OG, 25 °C
Description: The enzymatic activity of wt ALKBH3 dioxygenase and the Y143F, Y143A, L177A, and H191A mutants was investigated in a reaction with a 15nt single-stranded oligonucleotide substrate containing m3C at the ninth position from the 5’-end (see Section 4).
An enzymatic hydroxylation of a single-strand m3C-containing DNA was studied using a chemical quenching technique recently described for the ALKBH2 dioxygenase in [7]. Briefly, a typical reaction mixture contained an equimolar amount (2 µM) of the protein and FAM-labeled DNA substrate (m3C_FAM) in a buffer consisting of 50 mM of HEPES-KOH (pH 7.8), 50 mM of KCl, 10 mM of MgCl2, 1 mM of 2OG, 2 mM of sodium ascorbate, and 40 µM of (NH4)2Fe(SO4)2·6H2O. An equal volume of 0.2 M NaOH was added to […] of aliquots of the mixture to terminate the reaction at certain time points. After neutralization with HCl and desalting, each of the aliquots was supplemented by the complementary DNA strand and treated with the HpaII restriction endonuclease specific to the repaired sequence (CCGG) according to the manufacturer’s protocol. The resulting reaction product was separated from the substrate using denaturating PAGE and visualized by the Amersham Typhoon Imager (Cytiva, Uppsala, Sweden) (Supplementary Figure S1). Data for the wt, Y143F, and Y143A proteins were converted to mol/L units and then fitted to a single exponent (Equation (1)), where P, P0, and Pmax are amounts of product at any given time, at the zero-time point, and the end time point, respectively; kobs is the observed rate constant. (1) P=P0+Pmax(1−exp−kobst) […]
Figure 2 The catalytic activity of wt and mutant ALKBH3 proteins on single-stranded DNA substrate m3C_FAM. Time courses of the dealkylated product accumulation were obtained at 25 °C by mixing an equimolar amount (2 μM) of enzyme and FAM-labeled DNA substrate dissolved in the reaction buffer containing 40 μM Fe(II) and 1 mM 2OG. Each reaction time point is the mean ± SD of three technical replicates.
Figure S1. PAGE analysis of ALKBH3 repair activity towards the m3C -containing substrate. ALKBH3 at 2 µM was incubated with an equimolar amount of a FA M - labelled single-stranded substrate m3C_FAM. The reaction was quenched at each time point by the addition of an equal volume of 0.2 M NaOH.
as §4
In the case of B2, the “maximum DNA substrate demethylation degree (product yield)” value is reported as at most 7%. For B3, the “maximum DNA substrate demethylation degree (product yield)” value was “undetectable”. In the case of B4, the “maximum DNA substrate demethylation degree (product yield)” value is reported as 10%. In the case of B5, the “maximum DNA substrate demethylation degree (product yield)” value is reported as 30%.

Same assay, conditions: single exponential fit of product accumulation
For B1, the “observed rate constant for demethylation, kobs” value was 0.70 ± 0.08 min⁻¹. In the case of B5, the “observed rate constant for demethylation, kobs” value is reported as 0.17 ± 0.02 min⁻¹.
